Reference: publication PMC7305210, “Mitochondria-adaptor TRAK1 promotes kinesin-1 driven transport in crowded environments” (Nature Communications, 2020)

Target: microtubules polymerized from porcine tubulin (porcine, UniProt P02550 1-451; Q767L7 1-444, Alexa Fluor 647 NHS ester on 20% of the tubulin in fluorescently labeled microtubules | Alexa Fluor 647 NHS ester on 20% of the tubulin in fluorescently labeled microtubules)
Assay: single-molecule TIRF microscopy, two-colour co-movement on immobilised microtubules; KIF5B construct and 175 nM TRAK1 construct pre-incubated 10 min on ice, flushed onto bare immobilised microtubules in motility buffer with 1 mM Mg-ATP; room temperature; for the complexes traces of the mCherry-TRAK1 channel analysed
Conditions: both partners purified

Row | median interaction time with microtubules [s] | Binder
1 | 12.2 | KIF5B∆-GFP in complex with mCherry-TRAK1 (complex, KIF5B, kinesin-1 heavy chain, human, amino acids 1-905; as m2; TRAK1, cDNA KIAA1042; as m5; also called KIF5B∆-GFP-mCherry-TRAK1 complex; KIF5B∆-TRAK1 transport complex; source: the two purified proteins (m2 from SF9, m5 from HEK293T) pre-incubated 10 min on ice; not shown: GFP, C-terminal, kept; 6xHis, C-terminal, cleaved; mCherry, N-terminal, kept; TwinStrep-FLAG-Halo, N-terminal, cleaved; …) chain 1: MADLAECNIKVMCRFRPLNESEVNRGDKYIAKFQGEDTVVIASKPYAFDRVFQSSTSQEQVYNDCAKKIVKDVLEGYNGTIFAYGQTSSGKTHTMEGKLHDPEGMGIIPRIVQDIFNYIYSMDENLEFHIKVSYFEIYLDKIRDLLDVSKTNLSVHEDKNRVPYVKGCTERFVCSPDEVMDTIDEGKSNRHVAVTNMNEHSSRSHSIFLINVKQENTQTEQKLSGKLYLVDLAGSEKVSKTGAEGAVLDEAKNINKSLSALGNVISALAEGSTYVPYRDSKMTRILQDSLGGNCRTTIVICCSPSSYNESETKSTLLFGQRAKTIKNTVCVNVELTAEQWKKKYEKEKEKNKILRNTIQWLENELNRWRNGETVPIDEQFDKEKANLEAFTVDKDITLTNDKPATAIGVIGNFTDAERRKCEEEIAKLYKQLDDKDEEINQQSQLVEKLKTQMLDQEELLASTRRDQDNMQAELNRLQAENDASKEEVKEVLQALEELAVNYDQKSQEVEDKTKEYELLSDELNQKSATLASIDAELQKLKEMTNHQKKRAAEMMASLLKDLAEIGIAVGNNDVKQPEGTGMIDEEFTVARLYISKMKSEVKTMVKRCKQLESTQTESNKKMEENEKELAACQLRISQHEAKIKSLTEYLQNVEQKKRQLEESVDALSEELVQLRAQEKVHEMEKEHLNKVQTANEVKQAVEQQIQSHRETHQKQISSLRDEVEAKAKLITDLQDQNQKMMLEQERLRVEHEKLKATDQEKSRKLHELTVMQDRREQARQDLKGLEETVAKELQTLHNLRKLFVQDLATRVKKSAEIDSDDTGGSAAQKQKISFLENNLEQLTKVHKQLVRDNADLRCELPKLEKRLRATAERVKALESALKEAKENASRDRKRYQQEVDRIKEA chain 2: MALVFQFGQPVRAQPLPGLCHGKLIRTNACDVCNSTDLPEVEIISLLEEQLPHYKLRADTIYGYDHDDWLHTPLISPDANIDLTTEQIEETLKYFLLCAERVGQMTKTYNDIDAVTRLLEEKERDLELAARIGQSLLKKNKTLTERNELLEEQVEHIREEVSQLRHELSMKDELLQFYTSAAEESEPESVCSTPLKRNESSSSVQNYFHLDSLQKKLKDLEEENVVLRSEASQLKTETITYEEKEQQLVNDCVKELRDANVQIASISEELAKKTEDAARQQEEITHLLSQIVDLQKKAKACAVENEELVQHLGAAKDAQRQLTAELRELEDKYAECMEMLHEAQEELKNLRNKTMPNTTSRRYHSLGLFPMDSLAAEIEGTMRKELQLEEAESPDITHQKRVFETVRNINQVVKQRSLTPSPMNIPGSNQSSAMNSLLSSCVSTPRSSFYGSDIGNVVLDNKTNSIILETEAADLGNDERSKKPGTPGTPGSHDLETALRRLSLRRENYLSERRFFEEEQERKLQELAEKGELRSGSLTPTESIMSLGTHSRFSEFTGFSGMSFSSRSYLPEKLQIVKPLEGSATLHHWQQLAQPHLGGILDPRPGVVTKGFRTLDVDLDEVYCLNDFEEDDTGDHISLPRLATSTPVQHPETSAHHPGKCMSQTNSTFTFTTCRILHPSDELTRVTPSLNSAPTPACGSTSHLKSTPVATPCTPRRLSLAESFTNTRESTTTMSTSLGLVWLLKERGISAAVYDPQSWDRAGRGSLLHSYTPKMAVIPSTPPNSPMQTPTSSPPSFEFKCTSPPYDNFLASKPASSILREVREKNVRSSESQTDVSVSNLNLVDKVRRFGVAKVVNSGRAHVPTLTEEQGPLLCGPPGPAPALVPRGLVPEGLPLRCPTVTSAIGGLQLNSGIRRNRSFPTMVGSSMQMKAPVTLTSGILMGAKLSKQTSLR
2 | 5.33 | KIF5B-GFP-mCherry-TRAK1∆ complex (complex, KIF5B, kinesin-1 heavy chain, human, amino acids 1-963; as m1; TRAK1, stop codon after amino acid 635; as m6; also called truncated KIF5B-GFP-mCherry-TRAK1∆ complex; source: the two purified proteins (m1 from SF9, m6 from HEK293T) pre-incubated 10 min on ice; not shown: GFP, C-terminal, kept; 6xHis, C-terminal, cleaved; mCherry, N-terminal, kept; TwinStrep-FLAG-Halo, N-terminal, cleaved) chain 1: MADLAECNIKVMCRFRPLNESEVNRGDKYIAKFQGEDTVVIASKPYAFDRVFQSSTSQEQVYNDCAKKIVKDVLEGYNGTIFAYGQTSSGKTHTMEGKLHDPEGMGIIPRIVQDIFNYIYSMDENLEFHIKVSYFEIYLDKIRDLLDVSKTNLSVHEDKNRVPYVKGCTERFVCSPDEVMDTIDEGKSNRHVAVTNMNEHSSRSHSIFLINVKQENTQTEQKLSGKLYLVDLAGSEKVSKTGAEGAVLDEAKNINKSLSALGNVISALAEGSTYVPYRDSKMTRILQDSLGGNCRTTIVICCSPSSYNESETKSTLLFGQRAKTIKNTVCVNVELTAEQWKKKYEKEKEKNKILRNTIQWLENELNRWRNGETVPIDEQFDKEKANLEAFTVDKDITLTNDKPATAIGVIGNFTDAERRKCEEEIAKLYKQLDDKDEEINQQSQLVEKLKTQMLDQEELLASTRRDQDNMQAELNRLQAENDASKEEVKEVLQALEELAVNYDQKSQEVEDKTKEYELLSDELNQKSATLASIDAELQKLKEMTNHQKKRAAEMMASLLKDLAEIGIAVGNNDVKQPEGTGMIDEEFTVARLYISKMKSEVKTMVKRCKQLESTQTESNKKMEENEKELAACQLRISQHEAKIKSLTEYLQNVEQKKRQLEESVDALSEELVQLRAQEKVHEMEKEHLNKVQTANEVKQAVEQQIQSHRETHQKQISSLRDEVEAKAKLITDLQDQNQKMMLEQERLRVEHEKLKATDQEKSRKLHELTVMQDRREQARQDLKGLEETVAKELQTLHNLRKLFVQDLATRVKKSAEIDSDDTGGSAAQKQKISFLENNLEQLTKVHKQLVRDNADLRCELPKLEKRLRATAERVKALESALKEAKENASRDRKRYQQEVDRIKEAVRSKNMARRGHSAQIAKPIRPGQHPAASPTHPSAIRGGGAFVQNSQPVAVRGGGGKQV chain 2: MALVFQFGQPVRAQPLPGLCHGKLIRTNACDVCNSTDLPEVEIISLLEEQLPHYKLRADTIYGYDHDDWLHTPLISPDANIDLTTEQIEETLKYFLLCAERVGQMTKTYNDIDAVTRLLEEKERDLELAARIGQSLLKKNKTLTERNELLEEQVEHIREEVSQLRHELSMKDELLQFYTSAAEESEPESVCSTPLKRNESSSSVQNYFHLDSLQKKLKDLEEENVVLRSEASQLKTETITYEEKEQQLVNDCVKELRDANVQIASISEELAKKTEDAARQQEEITHLLSQIVDLQKKAKACAVENEELVQHLGAAKDAQRQLTAELRELEDKYAECMEMLHEAQEELKNLRNKTMPNTTSRRYHSLGLFPMDSLAAEIEGTMRKELQLEEAESPDITHQKRVFETVRNINQVVKQRSLTPSPMNIPGSNQSSAMNSLLSSCVSTPRSSFYGSDIGNVVLDNKTNSIILETEAADLGNDERSKKPGTPGTPGSHDLETALRRLSLRRENYLSERRFFEEEQERKLQELAEKGELRSGSLTPTESIMSLGTHSRFSEFTGFSGMSFSSRSYLPEKLQIVKPLEGSATLHHWQQLAQPHLGGILDPRPGVVTKGFRTLDVDLDEVYCLNDFEEDDTGD
